# Assay results: US20040049800A1, “Rapid methods for assessing therapeutic activity using animals expressing constitutively active G protein coupled receptors” (priority 2002, published 2004)
# Positions count from the first letter of the chain named.
# B1: Asn150Ala rat mu opioid receptor: rat mu opioid receptor with Asn150Ala point mutation at position 150 of SEQ ID NO: 1; constitutively active (protein, listed as Rattus norvegicus)
# chain: MDSSTGPGNTSDCSDPLAQASCSPAPGSWLNLSHVDGNQSDPCGLNRTGLGGNDSLCPQTGSPSMVTAITIMALYSIVCVVGLFGNFLVMYVIVRYTKMKTATNIYIFNLALADALATSTLPFQSVNYLMGTWPFGTILCKIVISIDYYAMFTSIFTLCTMSVDRYIAVCHPVKALDFRTPRNAKIVNVCNWILSSAIGLPVMFMATTKYRQGSIDCTLTFSHPTWYWENLLKICVFIFAFIMPILIITVCYGLMILRLKSVRMLSGSKEKDRNLRRITRMVLVVVAVFIVCWTPIHIYVIIKALITIPETTFQTVSWHFCIALGYTNSCLNPVLYAFLDENFKRCFREFCIPTSSTIEQQNSTRVRQNTREHPSTANTVDRTNHQLENLEAETAPLP
# B2: wild-type rat mu opioid receptor: wild-type rat mu opioid receptor (SEQ ID NO: 1), Gαi coupled receptor, comparator (protein, listed as Rattus norvegicus)
# chain: B1 chain with A150N
# B3: Leu325Glu CCK-BR mutant: human CCK-BR with point mutation Leu325Glu in the third intracellular loop; constitutively active (protein, UniProt P32239 1-447, looked up, variant L325E)
# Gastrin/cholecystokinin type …: MELLKLNRSVQGTGPGPGASLCRPGAPLLNSSSVGNLSCEPPRIRGAGTRELELAIRITLYAVIFLMSVGGNMLIIVVLGLSRRLRTVTNAFLLSLAVSDLLLAVACMPFTLLPNLMGTFIFGTVICKAVSYLMGVSVSVSTLSLVAIALERYSAICRPLQARVWQTRSHAARVIVATWLLSGLLMVPYPVYTVVQPVGPRVLQCVHRWPSARVRQTWSVLLLLLLFFIPGVVMAVAYGLISRELYLGLRFDGDSDSDSQSRVRNQGGLPGAVHQNGRCRPETGAVGEDSDGCYVQLPRSRPALELTALTAPGPGSGSRPTQAKELAKKRVVRMLLVIVVLFFLCWLPVYSANTWRAFDGPGAHRALSGAPISFIHLLSYASACVNPLVYCFMHRRFRQACLETCARCCPRPPRARPRALPDEDPPTPSIASLSRLSYTTISTLGPG
# How the values were obtained:
# [1] = molecular target: wild-type rat mu opioid receptor (rat) (UniProt P33535); assay: cell-based or functional assay
# [2] = molecular target: Asn150Ala mutant rat mu opioid receptor (rat) (UniProt P33535); assay: cell-based or functional assay
# cAMP production = assay: basal level cAMP production of MC-4 receptor mutant; type: cell-based; settings: FIG. 2
# Excerpt: FIG. 2 is a graph showing the constitutive activity of a D146M MC-4 receptor mutant as assayed by measuring basal level cAMP production.
# (§1) Briefly, HEK293 cells were cotransfected, as described above, with an expression vector encoding either the wild-type MC-4 receptor or the Asp146Met mutant MC-4 receptor and the reporter construct, SMS-Luc. As a negative control, cells were transfected with SMS-Luc and pcDNA1. Basal and ligand (αMHS) induced activity of the negative control, the wild-type MC-4 receptor, and the Asp146Met mutant MC-4 receptor were measured using the luciferase assay described above. […] Other constitutively active MC-4 receptors may be generated by this or any other approach and introduced as transgenics into animals of the invention
# [3] = system: SMS-Luc reporter in HEK293 cells; assay: SMS-Luc luciferase reporter assay of MC-4 receptors in HEK293 cells; type: cell-based
# Protocol: as §1
# [4] = system: SRE-Luc + Gq5i reporter in HEK293 cells; assay: SRE-Luc/Gq5i luciferase reporter assay in transfected HEK293 cells; type: cell-based; settings: for stimulation of basal level activity: Asn150Ala mutant versus wild-type receptor; for Ligand Induced Activity (Light Emission) / Basal Activity (Light Emission): HEK293 cells; for Ligand Induced Activity (Light Emission): ligand DAMGO; for Basal Activity (Light Emission): no ligand
# Protocol: Constitutive activity of the Asn150Ala mutant rat mu opioid receptor was assessed using a luciferase assay. The rat mu opioid receptor is a Gαi coupled receptor. Therefore we chose to use the Gq5i reporter system, described in detail above (Broach and Thorner, supra), which switches the signaling pathway from Gαi to Gαq for reliable positive readout. HEK293 cells were transfected with the reporter construct SRE-Luc, an expression vector containing nucleic acid encoding Gq5i (Broach and Thorner, supra), and an expression vector containing nucleic acid encoding either the wild-type or the Asn150Ala mutant rat mu opioid receptor. Basal and ligand-stimulated luciferase activity was measured. The ligand used in this assay was [D-Ala^2-MePhe^4, Gly-ol^5]enkephalin] (DAMGO). As a negative control, HEK293 cells were transfected with pcDNA1 (empty vector DNA), SRE-Luc, and the expression vector containing nucleic acid encoding Gq5i (Broach and Thorner, supra).
# The luciferase assay was carried out as follows. On day 1, HEK293 cells in a T75 flask were washed with 15 ml serum-free media (or PBS), trypsinized with 5 ml 0.05% trypsin-EDTA (Gibco #25300-062), incubated at 37° C. for 3 minutes at which time 6-7 ml complete HEK293 media (Gibco #12100-046) and 10% Fetal Bovine Serum (Intergen #1050-90) were added. Thereafter, cells were collected in 50 ml centrifuge tubes, pelleted at 800-900 rpm (RCF ˜275), and resuspend in 20 ml complete media. The cells were counted using a haemocytometer and diluted to 85,000 cells/ml in complete media. Using a repeat pipettor or cell plater, 100 μl of cells were added to each well of a Primaria 96-well plate (Falcon #353872). Cells were then incubated at 37° C., 5% CO2 until use at 48 hours.
# On day 3, cells were transfected using LipofectAMINE™ according to the manufacturer's protocol (Gibco #18324-012, Rockville, Md.).
# On day 4, cells were stimulated as follows. Ligands for the receptor, either DAMGO or a non-peptide ligand (e.g., naloxone or naltrexone), were diluted to a desired concentration in serum-free media containing 0.15 mM PMSF (or other protease inhibitor(s)). The transfection media was then completely removed from cells and 50-100 μl stimulation media (i.e., media containing candidate ligands or the corresponding ligand free solvent) was added to each well. The cells were incubated for the desired time (standard is overnight) at 37° C., 5% CO2, although the optimal stimulation time may vary depending on the particular receptor used. The optimal incubation time may be determined systematically by testing a range of incubation times and determining which one yields the highest level of stimulation. For concomitant assessment of two ligands (e.g., ligand induced inhibition of forskolin stimulated CRE activity) each stimulus is prepared at two times the desired final concentration and mixed in equal volumes prior to addition to cells.
# On day 5, an assay for luciferase expression was carried out according to the manufacturer's instructions (Packard, Meridin, Conn.)
# [5] = system: SMS-Luc reporter in HEK293 cells; assay: SMS-Luc luciferase reporter assay of CCK-BR receptors in HEK293 cells; type: cell-based; settings: FIG. 3
# Protocol: In addition to these studies, luciferase assays were performed to measure the constitutive activity of the Leu325Glu CCK-BR mutant. HEK293 cells were transfected (as described above) with SMS-Luc and an expression vector encoding any one of pcDNA1, wild-type CCK-BR, or Leu325Glu CCK-BR.
# [6] = system: phospholipase C-mediated production of inositol phosphate in COS-7 cells; settings: absence of agonist; cited from earlier work
molecule,measurement,setting,value
"[D-Ala^2-MePhe^4, Gly-ol^5]enkephalin (peptide)","Ligand Induced Activity (Light Emission), SRE-Luc + Gq5i luciferase reporter in HEK293 cells (Light Emission)",[1],87500
same,"Ligand Induced Activity (Light Emission), SRE-Luc + Gq5i luciferase reporter in HEK293 cells (Light Emission)",[2],87000
Asp146Met mutant MC-4 receptor: melanocortin-4 receptor with Asp at position 146 of the DRY motif replaced by Met,constitutive activity in cAMP assay,cAMP production,exhibited constitutive activity
same,basal level activity versus wild-type MC-4 receptor,[3],higher basal level activity than its wild-type counterpart
B1,stimulation of basal level activity,[4],*6.5-fold stimulation of basal level activity.
same,stimulation of basal level activity,[4]; listed as Asn150Ala mutant mu opioid receptor,approximately 6.5 fold
same,Ligand Induced Activity (Light Emission),[4],"86,996"
same,Basal Activity (Light Emission),[4],"*56,498"
B2,Ligand Induced Activity (Light Emission),[4],"87,461"
same,Basal Activity (Light Emission),[4],"8,436"
B3,basal level activity compared to wild-type CCK-BR,[5],increased basal level activity compared to the wild-type CCK-BR
same,agonist-independent constitutive activity (inositol phosphate production),[6],triggers constitutive production of inositol phosphates to levels exceeding wild-type CCK-BR
